B1: HSV-2 gD (aa1-275) with C-terminal His tag (domain or fragment)
chain: KYALADPSLKMADPNRFRGKNLPVLDQLTDPPGVKRVYHIQPSLEDPFQPPSIPITVYYAVLERACRSVLLHAPSEAPQIVRGASDEARKHTYNLTIAWYRMGDNCAIPITVMEYTECPYNKSLGVCPIRTQPRWSYYDSFSAVSEDNLGFLMHAPAFETAGTYLRLVKINDWTEITQFILEHRARASCKYALPLRIPPAACLTSKAYQQGVTVDSIGMLPRFIPENQRTVALYSLKIAGWHGPKPPYTSTLLPPELSDTTNATQPELVPEDPED
B2: HSV-1 gD (aa1-275) with C-terminal His tag (domain or fragment)
chain: KYALADASLKMADPNRFRGKDLPVLDQLTDPPGVRRVYHIQAGLPDPFQPPSLPITVYYAVLERACRSVLLNAPSEAPQIVRGASEDVRKQPYNLTIAWFRMGGNCAIPITVMEYTECSYNKSLGACPIRTQPRWNYYDSFSAVSEDNLGFLMHAPAFETAGTYLRLVKINDWTEITQFILEHRAKGSCKYALPLRIPPSACLSPQAYQQGVTVDSIGMLPRFIPENQRTVAVYSLKIAGWHGPKAPYTSTLLPPELSETPNATQPELAPEDPED

Key:
Nb32-Fc = Nb32-Fc (camel); test: SPR
Nb14-Fc = Nb14-Fc (camel); test: SPR

Binder | Kd (Nb32-Fc) | Kd (Nb14-Fc)
B1 | 0.0434 nM | 0.0831 nM
B2 | 0.0367 nM | 1.14 nM

From article PMC12055985 (Nature Communications, 2025)
